For one substance, EC50 results are on record in WO2013167756A1.

The target of this experiment is CD22 on CD22-positive Raji cells and CD22 positive Ramos cells (human) (UniProt P20273). In words: flow cytometry on CD22-positive Raji cells, PE anti-human IgG Fc secondary, four-parameter fit. A general note: A flow cytometer gives signals particle by particle.

pEC50: −log10 of the molar value.

As a reminder, the pEC50 is the EC50 on a negative log10 scale, so that one unit is a factor of ten. The substance “AGC1100, anti-CD22 monoclonal antibody hLL2, also called epratuzumab” had a pEC50 of 8.05.
